Experimental data: patent publication US20100048478A1 (University of Pennsylvania, published 2010)

Legend:
[1] = target: TRAIL receptor DR5 on SK-Hep1 human hepatoma cells (human) (UniProt O14763); experiment: cell-based or functional assay
[2] = target: T1, murine TWEAK, full length, on transiently transfected CHO cells (murine, UniProt O54907 1-249); experiment: flow cytometry on CHO cells transiently transfected with murine TWEAK, 4 C, detected with anti-mouse TRAIL Ab
T1 construct: whole, on cells; also called cell surface TWEAK
T1 sequence (looked up): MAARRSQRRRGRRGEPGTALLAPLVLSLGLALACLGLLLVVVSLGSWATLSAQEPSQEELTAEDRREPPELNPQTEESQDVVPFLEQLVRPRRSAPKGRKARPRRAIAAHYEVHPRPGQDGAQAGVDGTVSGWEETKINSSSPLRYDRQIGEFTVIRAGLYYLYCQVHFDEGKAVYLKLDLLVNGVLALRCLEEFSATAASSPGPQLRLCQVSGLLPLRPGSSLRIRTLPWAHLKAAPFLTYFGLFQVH
Procedure: B) CHO cells were transiently transfected with a murine TWEAK cDNA expression construct, and after 48 h, were incubated at 4° C. with purified Fn14-TRAIL or rTRAIL in sodium azide-containing buffer. The presence of membrane-bound TWEAK on transfectants, and the binding of Fn14-TRAIL to them, was verified by flow cytometry, using anti-mouse TWEAK Ab (B.1) and anti-mouse TRAIL Ab (B.2-5) as detecting Ab, respectively. (B.1) TWEAK is expressed on transfected CHO cells, as detected using anti-TWEAK Ab (solid black line) versus isotype control (filled histogram); (B.2) TRAIL is not detectable on CHO cells, when analyzed using anti-TRAIL Ab (solid black line) versus isotype control (filled histogram). (B.3 and B.4) TRAIL epitopes are enhanced when Fn14-TRAIL is added to TWEAK-expressing, as opposed to TWEAK-negative, CHO cells. Anti-TRAIL Ab and isotype control are represented by solid black line and filled histogram, respectively. […] Isotype control is shown as filled histogram.
To validate the identity of expressed Fn14-TRAIL, its ability to bind to Fn14's ligand, TWEAK, was assessed. To this end, CHO cells were transiently transfected with a murine TWEAK cDNA expression construct (in the pcDNA3 vector), and after 48 h, transfectants were incubated at 4° C. with purified Fn14-TRAIL or soluble TRAIL.

TRAIL receptor DR5 on SK-Hep1 human hepatoma cells (human), sequence (O14763 56-440): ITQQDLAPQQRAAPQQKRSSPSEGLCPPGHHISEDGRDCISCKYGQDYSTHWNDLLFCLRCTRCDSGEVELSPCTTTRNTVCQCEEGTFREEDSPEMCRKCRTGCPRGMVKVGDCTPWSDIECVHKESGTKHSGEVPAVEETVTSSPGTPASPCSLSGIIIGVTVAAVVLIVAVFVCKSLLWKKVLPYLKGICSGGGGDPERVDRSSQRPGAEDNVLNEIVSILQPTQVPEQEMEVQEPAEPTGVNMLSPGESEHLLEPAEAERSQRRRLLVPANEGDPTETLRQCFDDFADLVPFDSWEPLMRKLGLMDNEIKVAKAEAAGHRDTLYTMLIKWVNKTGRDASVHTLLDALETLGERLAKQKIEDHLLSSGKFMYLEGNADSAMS

Row | Molecule | killing effect on SK-Hep1 cells (24 h, trypan blue live/dead count) [1] | binding result [2]
1 | purified untagged human Fn14-TRAIL protein | 0.04 nM | –
2 | soluble TRAIL (aa 118-291 of murine TRAIL) (ligand, UniProt P50592 118-291, looked up, range 118-291) PRGGRPQKVAAHITGITRRSNSALIPISKDGKTLGQKIESWESSRKGHSFLNHVLFRNGELVIEQEGLYYIYSQTYFRFQEAEDASKMVSKDKVRTKQLVQYIYKYTSYPDPIVLMKSARNSCWSRDAEYGLYSIYQGGLFELKKNDRIFVSVTNEHLMDLDQEASFFGAFLIN | – | no binding
